Results from PMC12653191 (Journal of Fungi, 2025).

Biological target: T1, Candida glabrata Pbn1 (C. glabrata ATCC 2001, UniProt Q6FX62 1-416, N-glycosylation at N35, N319 and N365)
T1 construct: Pbn1, auxiliary subunit of GPI mannosyltransferase I, Candida glabrata ATCC 2001, UniProt Q6FX62, full length (416 amino acids); residues 2-408 are modelled in the structure; also called auxiliary subunit of GPI-MT-I; source: S. cerevisiae INVSc1, co-expressed with Gpi14, purified (Strep-Tactin, SEC); not shown: Twin-Strep II, N-terminal, kept
T1 sequence (looked up): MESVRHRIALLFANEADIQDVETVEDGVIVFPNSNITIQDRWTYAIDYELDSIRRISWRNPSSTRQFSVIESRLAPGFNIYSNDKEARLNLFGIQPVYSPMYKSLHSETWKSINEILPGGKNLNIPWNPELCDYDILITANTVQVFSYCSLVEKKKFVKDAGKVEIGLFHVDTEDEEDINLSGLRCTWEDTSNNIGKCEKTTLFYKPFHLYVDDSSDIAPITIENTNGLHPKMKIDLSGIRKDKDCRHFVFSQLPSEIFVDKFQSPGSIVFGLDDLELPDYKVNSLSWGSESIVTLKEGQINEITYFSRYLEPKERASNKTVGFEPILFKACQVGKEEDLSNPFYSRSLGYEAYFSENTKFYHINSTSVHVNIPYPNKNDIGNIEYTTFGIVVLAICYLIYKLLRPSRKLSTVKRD
Assay: cryo-EM structure; Gpi14-Pbn1 complex co-expressed in S. cerevisiae, purified by Strep-Tactin on Pbn1 and SEC in 20 mM Hepes pH 7.4, 150 mM NaCl, 0.02% GDN; ~22 mg/mL; endogenous Dol-P-Man bound
Conditions: both partners purified

B1: Candida glabrata Gpi14 (enzyme, C. glabrata ATCC 2001, UniProt Q6FXQ5 1-431, looked up)
chain: MFKLGTIGLLSLAVLLRIAFFLFGVYQDEHFTVKYTDIDYQVFNDAAWFVAHRKSPYNRDTYRYTPLLSWLLLPNHMIPWFHFGKLIFVLCDLATGVLILQMLKKLKSKYRYGTDRMTIMAAIWLLNPMVITISTRGNAESVLCFLILSFLYCFLCEQYLLGGLLFGLSIHFKIYPIIYALPIAIYVAAAHYNKTQSVFKSSFKLFLVGFSTLIVLILLTVFMYMLYGDKFIDQTYLYHIYRTDHRHNFSVWNMLLYFNSALPKTSELSKFVFLPQMIIVLAISLTQLRRPSSFPLLCNVLFLETFAFVTFNKVCTSQYFIWYLIFLPFVLYNTRISMRRGIVMLVVWVATQALWLRQGYLLEFEGQNVFYPGLFCASVGFFVSNAWILGQFIEDTIIQNDYVYRIEPSESRSKDSAVIDKPAIAKTEKAE
notes: Gpi14, GPI mannosyltransferase I catalytic subunit, Candida glabrata ATCC 2001, UniProt Q6FXQ5, full length (431 amino acids); residues 2-408 are modelled in the structure; also called catalytic subunit of GPI-MT-I; source: S. cerevisiae INVSc1, co-expressed with Pbn1, purified (Strep-Tactin via Pbn1, SEC)
  stoichiometry N: 1
